Where two headings read alike, the source gives them in different places.

Common to all, as to assay: cell-based or functional assay
Experiment [1] addresses T1, human antithrombin (human, UniProt P01008 33-464).
The target of experiment [2] is T1, human antithrombin. This is another data set of the same source.
Experiment [3] addresses T1, human antithrombin. This is another data set of the same source.
Further: test concentration or dose not given here.

T1 sequence (P01008 33-464 limits assumed): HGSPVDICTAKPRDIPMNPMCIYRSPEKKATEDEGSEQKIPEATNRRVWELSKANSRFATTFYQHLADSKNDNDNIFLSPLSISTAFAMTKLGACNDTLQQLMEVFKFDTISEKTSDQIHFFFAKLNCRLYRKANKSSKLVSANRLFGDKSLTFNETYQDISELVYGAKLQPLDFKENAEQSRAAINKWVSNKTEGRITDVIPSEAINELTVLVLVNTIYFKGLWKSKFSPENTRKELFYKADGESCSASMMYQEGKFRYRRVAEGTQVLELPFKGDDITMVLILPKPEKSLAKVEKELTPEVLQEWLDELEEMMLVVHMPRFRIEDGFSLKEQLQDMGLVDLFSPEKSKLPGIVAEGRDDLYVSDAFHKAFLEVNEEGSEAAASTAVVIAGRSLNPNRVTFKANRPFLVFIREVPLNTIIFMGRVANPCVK

B1: KB-AT-112 (bispecific antibody)
chain: QVQLQESGGGLVQAGGSLRLSCAASGRTFRNYVMGWFRQAPGKDPEFIAGINRSGAITYYGDSVKGRFTISRDNAKNTVSLQMNSLEPEDTAVYYCAAGETTWSIRRDDYDYWGQGTQVTVSSGGGSGGGSGGGSGGGSQVQLQESGGGLVQAGGSLRLSCAASGRTFRNYVMGWFRQAPGKDPEFIAGINRSGAITYYGDSVKGRFTISRDNAKNTVSLQMNSLEPEDTAVYYCAAGETTWSIRRDDYDYWGQGTQVTVSSGGGSGGGSGGGSGGGSQVQLVQSGGGLVQAGGSLRLSCAASGRTFNNNGMGWFRQAPGKEREFVAAISWSGGSTYYADSVKGRYIMSRDNAKNTVYLQMNSLKPEDTAVYYCAARTRYNSGLFSRNYDYWGQGTQVTVSS
With B1, the “% antithrombin neutralization (thrombin amidolytic activity on S-2238, with unfractionated heparin)” value with human antithrombin [1] stood at 29%.

B2: KB-AT-001/002 (bispecific antibody)
chain: QVQLQESGGGLVQAGGSLRLSCAASGRTFRNYVMGWFRQAPGKDPEFIAGINRSGAITYYGDSVKGRFTISRDNAKNTVSLQMNSLEPEDTAVYYCAAGETTWSIRRDDYDYWGQGTQVTVSSGGGSGGGSGGGSGGGSQVQLVQSGGGLVQAGGSLRLSCAASGRTFNNNGMGWFRQAPGKEREFVAAISWSGGSTYYADSVKGRYIMSRDNAKNTVYLQMNSLKPEDTAVYYCAARTRYNSGLFSRNYDYWGQGTQVTVSS
As to B2, the “% antithrombin neutralization (thrombin amidolytic activity on S-2238, with unfractionated heparin)” value with human antithrombin [2] came to 30%. In addition, the “% antithrombin neutralization (factor Xa amidolytic activity on S-2765, with LMW-heparin)” value with human antithrombin [3] turned out to be 57%.

B3: KB-AT-002/003 (bispecific antibody)
chain: QVQLQESGGGLVQAGGSLRLSCAASGRTFNNNGMGWFRQAPGKEREFVAAISWSGGSTYYADSVKGRYIMSRDNAKNTVYLQMNSLKPEDTAVYYCAARTRYNSGLFSRNYDYWGQGTQVTVSSGGGSGGGSGGGSGGGSQVQLQESGGGLVQPGGSLRLSCAASALTFSSRAWAWYRQAPGKQRELVASITGGGTTNYADSVKGRFTISRDNAKNTVYLQMNSLKPEDTAVHYCNGYRYTYAWGQGTQVTVSS
Regarding B3, the “% antithrombin neutralization (thrombin amidolytic activity on S-2238, with unfractionated heparin)” value with human antithrombin [2] turned out to be 47%. The “% antithrombin neutralization (factor Xa amidolytic activity on S-2765, with LMW-heparin)” value with human antithrombin [3] turned out to be 68%.

B4: KB-AT-115 (other)
chain: QVQLQESGGGLVQAGGSLRLSCAASGRTFRNYVMGWFRQAPGKDPEFIAGINRSGAITYYGDSVKGRFTISRDNAKNTVSLQMNSLEPEDTAVYYCAAGETTWSIRRDDYDYWGQGTQVTVSSGGGSGGGSGGGSGGGSQVQLQESGGGLVQAGGSLRLSCAASGRTFRNYVMGWFRQAPGKDPEFIAGINRSGAITYYGDSVKGRFTISRDNAKNTVSLQMNSLEPEDTAVYYCAAGETTWSIRRDDYDYWGQGTQVTVSSGGGSGGGSGGGSGGGSEVQLVESGGGLVQPGGSLRLSCEASGRDFNDAALGWSRQVPGKARETVAMITSGGVRNYAETVKDRFTISRDNAKNTVYLDMNNLQPDDTGVYYCKADSFKGDYDTSWYLYWGQGTQVTVSS
Turning to B4, the “% antithrombin neutralization (thrombin amidolytic activity on S-2238, with unfractionated heparin)” value in the experiment with human antithrombin [1] amounted to 26%.

B5: KB-AT-001/003 (bispecific antibody)
chain: QVQLQESGGGLVQAGGSLRLSCAASGRTFRNYVMGWFRQAPGKDPEFIAGINRSGAITYYGDSVKGRFTISRDNAKNTVSLQMNSLEPEDTAVYYCAAGETTWSIRRDDYDYWGQGTQVTVSSGGGSGGGSGGGSGGGSQVQLQESGGGLVQPGGSLRLSCAASALTFSSRAWAWYRQAPGKQRELVASITGGGTTNYADSVKGRFTISRDNAKNTVYLQMNSLKPEDTAVHYCNGYRYTYAWGQGTQVTQVTVSS
On to B5, for which the “% antithrombin neutralization (thrombin amidolytic activity on S-2238, with unfractionated heparin)” value with human antithrombin [2] was found to be 56%. Besides, in the experiment with human antithrombin [3], the “% antithrombin neutralization (factor Xa amidolytic activity on S-2765, with LMW-heparin)” value was 62%.

B6: KB-AT-113 (bispecific antibody)
chain: QVQLQESGGGLVQAGGSLRLSCAASGRTFRNYVMGWFRQAPGKDPEFIAGINRSGAITYYGDSVKGRFTISRDNAKNTVSLQMNSLEPEDTAVYYCAAGETTWSIRRDDYDYWGQGTQVTVSSGGGSGGGSGGGSGGGSQVQLQESGGGLVQAGGSLRLSCAASGRTFRNYVMGWFRQAPGKDPEFIAGINRSGAITYYGDSVKGRFTISRDNAKNTVSLQMNSLEPEDTAVYYCAAGETTWSIRRDDYDYWGQGTQVTVSSGGGSGGGSGGGSGGGSQVQLQESGGGLVQPGGSLRLSCAASALTFSSRAWAWYRQAPGKQRELVASITGGGTTNYADSVKGRFTISRDNAKNTVYLQMNSLKPEDTAVHYCNGYRYTYAWGQGTQVTQVTVSS
For B6, in the experiment with human antithrombin [1], the “% antithrombin neutralization (thrombin amidolytic activity on S-2238, with unfractionated heparin)” value is 97%.

B7: KB-AT-1123 (bispecific antibody)
chain: QVQLQESGGGLVQAGGSLRLSCAASGRTFRNYVMGWFRQAPGKDPEFIAGINRSGAITYYGDSVKGRFTISRDNAKNTVSLQMNSLEPEDTAVYYCAAGETTWSIRRDDYDYWGQGTQVTVSSGGGSGGGSGGGSGGGSQVQLQESGGGLVQAGGSLRLSCAASGRTFRNYVMGWFRQAPGKDPEFIAGINRSGAITYYGDSVKGRFTISRDNAKNTVSLQMNSLEPEDTAVYYCAAGETTWSIRRDDYDYWGQGTQVTVSSGGGSGGGSGGGSGGGSQVQLVQSGGGLVQAGGSLRLSCAASGRTFNNNGMGWFRQAPGKEREFVAAISWSGGSTYYADSVKGRYIMSRDNAKNTVYLQMNSLKPEDTAVYYCAARTRYNSGLFSRNYDYWGQGTQVTVSSGGGSGGGSGGGSGGGSQVQLQESGGGLVQPGGSLRLSCAASALTFSSRAWAWYRQAPGKQRELVASITGGGTTNYADSVKGRFTISRDNAKNTVYLQMNSLKPEDTAVHYCNGYRYTYAWGQGTQVTQVTVSS
Regarding B7, the “% antithrombin neutralization (thrombin amidolytic activity on S-2238, with unfractionated heparin)” value in the experiment with human antithrombin [1] is 99%.

B8: KB-AT-001/005 (other)
chain: QVQLQESGGGLVQAGGSLRLSCAASGRTFRNYVMGWFRQAPGKDPEFIAGINRSGAITYYGDSVKGRFTISRDNAKNTVSLQMNSLEPEDTAVYYCAAGETTWSIRRDDYDYWGQGTQVTVSSGGGSGGGSGGGSGGGSEVQLVESGGGLVQPGGSLRLSCEASGRDFNDAALGWSRQVPGKARETVAMITSGGVRNYAETVKDRFTISRDNAKNTVYLDMNNLQPDDTGVYYCKADSFKGDYDTSWYLYWGQGTQVTVSS
On to B8, for which the “% antithrombin neutralization (thrombin amidolytic activity on S-2238, with unfractionated heparin)” value with human antithrombin [2] is 28%. Moreover, the “% antithrombin neutralization (factor Xa amidolytic activity on S-2765, with LMW-heparin)” value with human antithrombin [3] was 34%.

These data come from patent US20190100602A1 (INSERM INSTITUT NATIONAL DE LA SANT ET DE LA RECHERCHE M …, published 2019).
